The values below come from patent US6953794.

This test concerns the target truncated core tau unit terminating at Ala-390 (human) (UniProt P10636). Description: ELISA tau-tau binding assay; core tau unit in the solid phase, full-length tau in the aqueous phase.

Chain of truncated core tau unit terminating at Ala-390 (human) (P10636 614-707 limits assumed): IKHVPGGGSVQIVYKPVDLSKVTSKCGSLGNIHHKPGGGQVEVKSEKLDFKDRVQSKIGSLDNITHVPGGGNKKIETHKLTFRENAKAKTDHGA

“normal full-length tau protein (the particular tau species/isoform tested)”: the Kd was 8 to 25 nM.
